Data on 20 molecules can be found in patent publication US20220008527A1 (AGENUS, published 2022).

B1: polypeptide LGVVRPRALHRELDLVDDSPTPGSPGSFFRKNWLRLTW (SEQ ID NO: 77) (peptide)
peptide: LGVVRPRALHRELDLVDDSPTPGSPGSFFRKNWLRLTW
notes: also called polypeptide comprising PEP006; PEP006-containing polypeptide

For one experiment, the target named is T1, recombinant human heat shock cognate 71 kDa protein (Hsc70) (human, UniProt P11142 1-646, limits assumed).
T1 construct: also called rhHsc70; human Hsc70
T1 sequence (P11142 whole entry): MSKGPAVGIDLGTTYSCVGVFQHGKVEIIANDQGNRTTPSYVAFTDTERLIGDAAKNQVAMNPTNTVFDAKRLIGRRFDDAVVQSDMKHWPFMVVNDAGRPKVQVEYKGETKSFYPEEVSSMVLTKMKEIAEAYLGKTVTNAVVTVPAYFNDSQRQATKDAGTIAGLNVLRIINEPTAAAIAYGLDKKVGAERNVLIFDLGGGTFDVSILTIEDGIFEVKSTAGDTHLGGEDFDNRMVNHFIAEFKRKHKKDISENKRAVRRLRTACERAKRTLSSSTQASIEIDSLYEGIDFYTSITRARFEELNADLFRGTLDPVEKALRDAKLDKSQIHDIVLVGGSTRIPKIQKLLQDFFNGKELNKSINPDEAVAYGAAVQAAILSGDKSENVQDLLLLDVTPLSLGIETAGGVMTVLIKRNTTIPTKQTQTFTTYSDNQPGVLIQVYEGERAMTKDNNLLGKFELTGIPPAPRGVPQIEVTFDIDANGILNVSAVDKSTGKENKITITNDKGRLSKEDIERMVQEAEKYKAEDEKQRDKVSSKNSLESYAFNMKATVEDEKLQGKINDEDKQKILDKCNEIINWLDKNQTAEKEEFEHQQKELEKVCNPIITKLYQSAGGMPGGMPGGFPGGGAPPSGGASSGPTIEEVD
Nature of the experiment: SEC of peptide-Hsc70 mixture; peptide:Hsc70 molar ratio 4:1.
As to FFRKNFLRLTF (Synthetic peptide) [PEP027], the “Percent complexation with Hsc70” value turned out to be 90%.
On the same count and under the same terms, the figure for FFRKNWLRLTW (Synthetic peptide) [PEP006] is 91.8%; for FFRKNLLRLTG (Synthetic peptide) [PEP001] it is 90.1%.
On the same count and under the same terms, the figure for FFRKNWLRLFW (Synthetic peptide) [PEP010] is 86.5%.
Same read-out and setting: for FFRKNLLRLTW (Synthetic peptide) [PEP155] the value was 86.6%; for FFRKQWLRLTW (Synthetic peptide) [PEP014], 90.3%; for FFRKNLLRWTG (Synthetic peptide) [PEP004], 75.3%.
As to FFRKNWLKLRW (Synthetic peptide) [PEP057], the “Percent complexation with Hsc70” value is 88.3%.
On to FFRKNWLRLKW (Synthetic peptide) [PEP011], for which the “Percent complexation with Hsc70” value is 90.4%.
Same read-out and setting: for FFRKNWLLLTW (Synthetic peptide) [PEP003] the value was 87.6%; for FFRKNWLRLLW (Synthetic peptide) [PEP009], 89%.
Take FFRKNWLKLTW (Synthetic peptide) [PEP012]: the “Percent complexation with Hsc70” value was 89.5%.
The same measure, in the same setting: for FFRKNWLKLKW (Synthetic peptide) [PEP055] the value was 86.3%.
Same read-out and setting: the figure for FFRKFWLRLTW (Synthetic peptide) [PEP008] is 81.6%.
On the same count and under the same terms, for FFRKNRLLLTG (Synthetic peptide) [PEP002] the value was 78.8%; for FFRKNRLWLTG (Synthetic peptide) [PEP005], 77.6%.
FFRKNWIRITW (Synthetic peptide) [PEP013]: the “Percent complexation with Hsc70” value was found to be 87.7%.
Take FRNWLRLTW (Synthetic peptide) [PEP028]: the “Percent complexation with Hsc70” value was determined as 87.5%.
FFRKNWLKLWK (Synthetic peptide) [PEP058]: the “Percent complexation with Hsc70” value amounted to 83.9%.

The next experiment addresses T1, recombinant human heat shock cognate 71 …. Briefly: size exclusion chromatography of polypeptide-Hsc70 mixtures, molar ratios 0.125:1 to 4:1 (FIG. 3A). Background: SEC sorts molecules by how far they enter the pores of the column.
B1: the binding result is recorded as “binds”.

Another experiment has the same target. Nature of the experiment: SEC of peptide-Hsc70 mixture; peptide:Hsc70 molar ratio 0.5:1.
In the case of FFRKNFLRLTF (Synthetic peptide) [PEP027], the “Percent complexation with Hsc70” value is 49%.
On to FFRKNWLRLTW (Synthetic peptide) [PEP006], for which the “Percent complexation with Hsc70” value turned out to be 53.4%.
On to FFRKNLLRLTG (Synthetic peptide) [PEP001], for which the “Percent complexation with Hsc70” value was 44.7%.
On the same count and under the same terms, the figure for FFRKNWLRLFW (Synthetic peptide) [PEP010] is 42.2%; for FFRKNLLRLTW (Synthetic peptide) [PEP155] it is 48.1%.
Turning to FFRKQWLRLTW (Synthetic peptide) [PEP014], the “Percent complexation with Hsc70” value came out at 54.4%.
With FFRKNLLRWTG (Synthetic peptide) [PEP004], the “Percent complexation with Hsc70” value stood at 29%.
On the same count and under the same terms, the figure for FFRKNWLKLRW (Synthetic peptide) [PEP057] is 50%; for FFRKNWLRLKW (Synthetic peptide) [PEP011] it is 58.2%; for FFRKNWLLLTW (Synthetic peptide) [PEP003] it is 45.6%.
Turning to FFRKNWLRLLW (Synthetic peptide) [PEP009], the “Percent complexation with Hsc70” value is 63.5%.
In the case of FFRKNWLKLTW (Synthetic peptide) [PEP012], the “Percent complexation with Hsc70” value turned out to be 58.2%.
Same read-out and setting: the figure for FFRKNWLKLKW (Synthetic peptide) [PEP055] is 52.2%; for FFRKFWLRLTW (Synthetic peptide) [PEP008] it is 38.3%; for FFRKNRLLLTG (Synthetic peptide) [PEP002] it is 32%.
FFRKNRLWLTG (Synthetic peptide) [PEP005]: the “Percent complexation with Hsc70” value amounted to 32.7%.
Regarding FFRKNWIRITW (Synthetic peptide) [PEP013], the “Percent complexation with Hsc70” value stood at 48.3%.
FRNWLRLTW (Synthetic peptide) [PEP028]: the “Percent complexation with Hsc70” value turned out to be 46.4%.
The same measure, in the same setting: the figure for FFRKNWLKLWK (Synthetic peptide) [PEP058] is 43.5%.

For the next experiment the target is unchanged. Briefly: SEC of peptide-Hsc70 mixture; peptide:Hsc70 molar ratio 2:1.
Consider FFRKNFLRLTF (Synthetic peptide) [PEP027], for which the “Percent complexation with Hsc70” value is 85.6%.
Turning to FFRKNWLRLTW (Synthetic peptide) [PEP006], the “Percent complexation with Hsc70” value came to 88.3%.
The same measure, in the same setting: the figure for FFRKNLLRLTG (Synthetic peptide) [PEP001] is 82.5%; for FFRKNWLRLFW (Synthetic peptide) [PEP010] it is 79.3%.
Regarding FFRKNLLRLTW (Synthetic peptide) [PEP155], the “Percent complexation with Hsc70” value came out at 82.9%.
On to FFRKQWLRLTW (Synthetic peptide) [PEP014], for which the “Percent complexation with Hsc70” value was 88.1%.
As to FFRKNLLRWTG (Synthetic peptide) [PEP004], the “Percent complexation with Hsc70” value came to 62.5%.
Same read-out and setting: for FFRKNWLKLRW (Synthetic peptide) [PEP057] the value was 82.8%; for FFRKNWLRLKW (Synthetic peptide) [PEP011], 87.8%; for FFRKNWLLLTW (Synthetic peptide) [PEP003], 81.3%.
Turning to FFRKNWLRLLW (Synthetic peptide) [PEP009], the “Percent complexation with Hsc70” value amounted to 85.3%.
In the case of FFRKNWLKLTW (Synthetic peptide) [PEP012], the “Percent complexation with Hsc70” value amounted to 86.2%.
Still for that read-out and setting: the figure for FFRKNWLKLKW (Synthetic peptide) [PEP055] is 83.7%; for FFRKFWLRLTW (Synthetic peptide) [PEP008] it is 79.1%; for FFRKNRLLLTG (Synthetic peptide) [PEP002] it is 64.8%.
Same read-out and setting: for FFRKNRLWLTG (Synthetic peptide) [PEP005] the value was 67.6%; for FFRKNWIRITW (Synthetic peptide) [PEP013], 81.9%.
As to FRNWLRLTW (Synthetic peptide) [PEP028], the “Percent complexation with Hsc70” value came out at 84.1%.
For the molecule FFRKNWLKLWK (Synthetic peptide) [PEP058], the “Percent complexation with Hsc70” value worked out at 78.8%.

A further experiment has the same target. Nature of the experiment: SEC of peptide-Hsc70 mixture; peptide:Hsc70 molar ratio 0.25:1.
On to FFRKNFLRLTF (Synthetic peptide) [PEP027], for which the “Percent complexation with Hsc70” value was 19.1%.
Same read-out and setting: for FFRKNWLRLTW (Synthetic peptide) [PEP006] the value was 25.4%; for FFRKNLLRLTG (Synthetic peptide) [PEP001], 23.4%; for FFRKNWLRLFW (Synthetic peptide) [PEP010], 19.1%.
Same read-out and setting: the figure for FFRKNLLRLTW (Synthetic peptide) [PEP155] is 22.5%; for FFRKQWLRLTW (Synthetic peptide) [PEP014] it is 29.3%; for FFRKNLLRWTG (Synthetic peptide) [PEP004] it is 15.4%.
For the molecule FFRKNWLKLRW (Synthetic peptide) [PEP057], the “Percent complexation with Hsc70” value stood at 24.9%.
On the same count and under the same terms, for FFRKNWLRLKW (Synthetic peptide) [PEP011] the value was 31.2%; for FFRKNWLLLTW (Synthetic peptide) [PEP003], 26.8%.
On the same count and under the same terms, the figure for FFRKNWLRLLW (Synthetic peptide) [PEP009] is 32.8%.
Consider FFRKNWLKLTW (Synthetic peptide) [PEP012], for which the “Percent complexation with Hsc70” value amounted to 29.9%.
Consider FFRKNWLKLKW (Synthetic peptide) [PEP055], for which the “Percent complexation with Hsc70” value stood at 24.1%.
On the same count and under the same terms, the figure for FFRKFWLRLTW (Synthetic peptide) [PEP008] is 24.4%; for FFRKNRLLLTG (Synthetic peptide) [PEP002] it is 19.2%; for FFRKNRLWLTG (Synthetic peptide) [PEP005] it is 16%.
Still for that read-out and setting: the figure for FFRKNWIRITW (Synthetic peptide) [PEP013] is 25.6%; for FRNWLRLTW (Synthetic peptide) [PEP028] it is 24%; for FFRKNWLKLWK (Synthetic peptide) [PEP058] it is 22.7%.

The target is the same in a further experiment. Nature of the experiment: SEC of peptide-Hsc70 mixture; peptide:Hsc70 molar ratio 1:1.
As to FFRKNFLRLTF (Synthetic peptide) [PEP027], the “Percent complexation with Hsc70” value turned out to be 77%.
The same measure, in the same setting: the figure for FFRKNWLRLTW (Synthetic peptide) [PEP006] is 81.5%.
As to FFRKNLLRLTG (Synthetic peptide) [PEP001], the “Percent complexation with Hsc70” value came out at 68.1%.
Consider FFRKNWLRLFW (Synthetic peptide) [PEP010], for which the “Percent complexation with Hsc70” value was determined as 64.9%.
As for FFRKNLLRLTW (Synthetic peptide) [PEP155], the “Percent complexation with Hsc70” value is 75.6%.
Same read-out and setting: for FFRKQWLRLTW (Synthetic peptide) [PEP014] the value was 80.9%.
For the molecule FFRKNLLRWTG (Synthetic peptide) [PEP004], the “Percent complexation with Hsc70” value came to 46.8%.
As for FFRKNWLKLRW (Synthetic peptide) [PEP057], the “Percent complexation with Hsc70” value stood at 72.2%.
The same measure, in the same setting: for FFRKNWLRLKW (Synthetic peptide) [PEP011] the value was 81.6%; for FFRKNWLLLTW (Synthetic peptide) [PEP003], 67.2%; for FFRKNWLRLLW (Synthetic peptide) [PEP009], 81%.
Consider FFRKNWLKLTW (Synthetic peptide) [PEP012], for which the “Percent complexation with Hsc70” value was 79.2%.
On the same count and under the same terms, the figure for FFRKNWLKLKW (Synthetic peptide) [PEP055] is 75.9%; for FFRKFWLRLTW (Synthetic peptide) [PEP008] it is 61.8%; for FFRKNRLLLTG (Synthetic peptide) [PEP002] it is 48.7%.
On the same count and under the same terms, for FFRKNRLWLTG (Synthetic peptide) [PEP005] the value was 54.8%; for FFRKNWIRITW (Synthetic peptide) [PEP013], 69.6%.
For FRNWLRLTW (Synthetic peptide) [PEP028], the “Percent complexation with Hsc70” value stood at 75.6%.
Take FFRKNWLKLWK (Synthetic peptide) [PEP058]: the “Percent complexation with Hsc70” value is 66.5%.
